# From publication PMC5931981, “Identification of a pyrophosphate-dependent kinase and its donor selectivity determinants” (Nature Communications, 2018)
# T1: TM0415 (Thermotoga maritima, UniProt Q9WYP6)
# T1 construct: gene TM_0415; synthetic gene in pET-15b, E. coli BL21(DE3)pLysS; N-terminal His-tag for activity and kinetics; untagged for crystallization; monomer
# T1 sequence (Q9WYP6 1-286): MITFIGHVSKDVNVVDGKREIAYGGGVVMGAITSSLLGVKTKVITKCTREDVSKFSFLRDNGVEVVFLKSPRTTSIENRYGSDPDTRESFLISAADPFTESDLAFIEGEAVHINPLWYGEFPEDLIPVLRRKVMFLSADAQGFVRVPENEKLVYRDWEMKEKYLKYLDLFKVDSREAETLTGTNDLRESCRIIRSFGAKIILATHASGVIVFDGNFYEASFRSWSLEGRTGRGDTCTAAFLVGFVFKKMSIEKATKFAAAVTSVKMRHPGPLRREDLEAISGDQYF
# Key:
# [1] = molecular target: T1, TM0415; assay: X-ray crystal structure; assay type: binding; settings: untagged
# [2] = substrate: O=P(O)(O)OP(=O)(O)O; assay: malachite green Pi assay; assay type: biochemical, Thermotoga maritima; settings: myo-inositol as acceptor, 500 µM MgCl2, 50 mM MES-NaOH pH 6.1, 70 °C, His-tagged, upper limit, velocity constant at 15-500 µM
# [3] = substrate: O[C@H]1[C@H](O)[C@@H](O)[C@H](O)[C@@H](O)[C@H]1O; assay: malachite green Pi assay; assay type: biochemical, Thermotoga maritima; settings: PPi as phosphate donor, 500 µM MgCl2, 50 mM MES-NaOH pH 6.1, 70 °C, His-tagged
molecule,measurement,setting,value
O[C@H]1[C@H](O)[C@@H](O)[C@H](O)[C@@H](O)[C@H]1O [myo-inositol],X-ray crystal structure,"[1]; phosphate-acceptor site, with PCP and Mg2+, also in sulfate complex 5YSQ","D11, N78, Q141, and R145 in TM0415 interact with four of the six hydroxyl groups"
O=P(O)(O)CP(=O)(O)O [PCP],X-ray crystal structure,"[1]; phosphate-donor site, chain A, with Mg2+ and myo-inositol","Chain A was complexed with PCP, a magnesium ion, and myo-inositol"
"TM0415 (Thermotoga maritima MSB8) (protein, synthetic gene in pET-15b, E. coli BL21(DE3)pLysS; N-terminal His-tag for activity and kinetics; untagged for crystallization; monomer) MITFIGHVSKDVNVVDGKREIAYGGGVVMGAITSSLLGVKTKVITKCTREDVSKFSFLRDNGVEVVFLKSPRTTSIENRYGSDPDTRESFLISAADPFTESDLAFIEGEAVHINPLWYGEFPEDLIPVLRRKVMFLSADAQGFVRVPENEKLVYRDWEMKEKYLKYLDLFKVDSREAETLTGTNDLRESCRIIRSFGAKIILATHASGVIVFDGNFYEASFRSWSLEGRTGRGDTCTAAFLVGFVFKKMSIEKATKFAAAVTSVKMRHPGPLRREDLEAISGDQYF",kcat,[2],~9.5 s⁻¹
same,Km,[3],12 ± 2 mM
same,kcat,[3],10.8 ± 0.3 s⁻¹
